# Data reported in IntAct's records for PubMed 11713520.
# B1: Auxin-responsive protein IAA17 (Arabidopsis thaliana (Mouse-ear cress)), P93830 (parent)
# chain: MMGSVELNLRETELCLGLPGGDTVAPVTGNKRGFSETVDLKLNLNNEPANKEGSTTHDVVTFDSKEKSACPKDPAKPPAKAQVVGWPPVRSYRKNVMVSCQKSSGGPEAAAFVKVSMDGAPYLRKIDLRMYKSYDELSNALSNMFSSFTMGKHGGEEGMIDFMNERKLMDLVNSWDYVPSYEDKDGDWMLVGDVPWPMFVDTCKRLRLMKGSDAIGLAPRAMEKCKSRA
# partner: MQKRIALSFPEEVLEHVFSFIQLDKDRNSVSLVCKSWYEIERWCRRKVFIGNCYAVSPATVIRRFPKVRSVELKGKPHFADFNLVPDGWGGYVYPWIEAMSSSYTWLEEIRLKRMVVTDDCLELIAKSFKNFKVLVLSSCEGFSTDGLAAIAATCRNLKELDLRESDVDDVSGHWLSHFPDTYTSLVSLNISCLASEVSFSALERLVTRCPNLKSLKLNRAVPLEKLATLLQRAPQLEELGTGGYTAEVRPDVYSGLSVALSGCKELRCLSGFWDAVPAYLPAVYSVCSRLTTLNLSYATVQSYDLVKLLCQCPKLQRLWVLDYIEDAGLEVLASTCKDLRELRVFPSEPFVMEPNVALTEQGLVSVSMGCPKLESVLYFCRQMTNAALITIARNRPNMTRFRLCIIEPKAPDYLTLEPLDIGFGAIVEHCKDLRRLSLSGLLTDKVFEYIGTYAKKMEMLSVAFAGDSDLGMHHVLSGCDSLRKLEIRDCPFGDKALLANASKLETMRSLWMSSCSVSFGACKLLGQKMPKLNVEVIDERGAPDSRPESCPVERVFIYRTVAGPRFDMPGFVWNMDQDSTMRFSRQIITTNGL
# Variants of: B1
# Conditions: with tir1_arath TIR1, Q570C0
row,Variant,effect of a mutation on the interaction
1,P88L,decreasing interaction
